Assay results reported in patent US20260265354A1 (JIANGSU MABWELL HEALTH PHARMACEUTICAL R AND D, published 2026).

T1: Nectin-like-5 (UniProt P15151 21-343)
T1 construct: Bought recombinant protein; also called CD155; PVR
T1 sequence (looked up): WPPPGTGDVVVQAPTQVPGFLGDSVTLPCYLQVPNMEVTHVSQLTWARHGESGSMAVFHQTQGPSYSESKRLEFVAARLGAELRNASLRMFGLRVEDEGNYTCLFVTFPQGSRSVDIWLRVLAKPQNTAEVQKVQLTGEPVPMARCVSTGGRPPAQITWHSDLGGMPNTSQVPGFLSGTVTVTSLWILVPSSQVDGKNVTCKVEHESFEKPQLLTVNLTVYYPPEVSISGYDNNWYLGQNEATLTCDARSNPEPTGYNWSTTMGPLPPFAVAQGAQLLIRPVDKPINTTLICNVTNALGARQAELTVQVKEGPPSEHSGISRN

T2: Nectin-1 (UniProt Q15223 31-334, limits assumed)
T2 construct: Bought recombinant protein; also called CD111; PVRL-1
T2 sequence (looked up): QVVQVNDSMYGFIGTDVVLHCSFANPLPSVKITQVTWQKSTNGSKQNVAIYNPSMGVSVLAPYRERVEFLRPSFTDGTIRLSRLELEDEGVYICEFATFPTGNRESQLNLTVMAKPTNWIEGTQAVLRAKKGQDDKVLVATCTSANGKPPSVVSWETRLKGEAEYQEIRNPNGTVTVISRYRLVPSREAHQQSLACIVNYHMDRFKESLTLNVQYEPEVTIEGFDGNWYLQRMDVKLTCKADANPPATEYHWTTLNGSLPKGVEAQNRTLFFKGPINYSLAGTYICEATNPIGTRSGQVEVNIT

T3: Nectin-2 (UniProt Q92692 32-360, limits assumed)
T3 construct: Bought recombinant protein; also called CD112; PVRL-2
T3 sequence (looked up): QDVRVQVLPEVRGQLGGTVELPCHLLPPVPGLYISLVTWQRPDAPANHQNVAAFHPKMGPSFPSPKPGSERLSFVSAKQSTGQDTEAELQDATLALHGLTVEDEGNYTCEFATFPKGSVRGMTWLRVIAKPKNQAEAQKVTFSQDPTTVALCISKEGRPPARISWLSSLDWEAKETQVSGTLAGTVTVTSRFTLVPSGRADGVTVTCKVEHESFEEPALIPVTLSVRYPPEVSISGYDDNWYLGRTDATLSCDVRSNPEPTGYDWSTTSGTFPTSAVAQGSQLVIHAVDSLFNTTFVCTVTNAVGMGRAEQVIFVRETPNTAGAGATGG

T4: Nectin-like-4 (UniProt Q8NFZ8 21-324, limits assumed)
T4 construct: Bought recombinant protein; also called CADM4; IgSF4C
T4 sequence (looked up): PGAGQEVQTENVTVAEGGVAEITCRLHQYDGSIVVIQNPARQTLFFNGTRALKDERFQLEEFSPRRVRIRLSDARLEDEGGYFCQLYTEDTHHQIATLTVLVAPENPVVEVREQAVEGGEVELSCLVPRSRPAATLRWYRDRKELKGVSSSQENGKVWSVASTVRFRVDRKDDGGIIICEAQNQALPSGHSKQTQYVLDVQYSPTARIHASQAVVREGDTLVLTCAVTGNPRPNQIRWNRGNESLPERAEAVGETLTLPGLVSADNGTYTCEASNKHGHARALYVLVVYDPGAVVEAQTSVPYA

T5: Nectin-like-1 (UniProt Q8N126 25-330, limits assumed)
T5 construct: Bought recombinant protein; also called CADM3; IgSF4B
T5 sequence (looked up): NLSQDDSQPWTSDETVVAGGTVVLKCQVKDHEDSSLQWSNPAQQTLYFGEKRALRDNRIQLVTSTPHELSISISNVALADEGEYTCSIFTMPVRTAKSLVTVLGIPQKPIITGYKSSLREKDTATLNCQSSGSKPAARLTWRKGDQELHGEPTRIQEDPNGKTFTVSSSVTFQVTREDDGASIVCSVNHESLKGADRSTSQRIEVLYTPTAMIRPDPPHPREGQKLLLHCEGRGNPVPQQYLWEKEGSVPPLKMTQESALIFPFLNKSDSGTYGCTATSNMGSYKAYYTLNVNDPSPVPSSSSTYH


What was measured:
[1] = target: T1, Nectin-like-5; experiment: ELISA, coated antigen, antibody at 10 ng/ml
Protocol: (§1) Coating: Nectin-1, Nectin-2, Nectin-3, Nectin-4, Nectin-like-1, Nectin-like-2, Nectin-like-3, Nectin-like-4, and Nectin-like-5 were diluted to 5 μg/ml in coating buffer (carbonate buffer, pH 9.6) respectively. A 96-well plate was coat with 100 μl per well and incubated overnight at 2-8° C.;
(§2) Sample loading: The plate was taken out, patted dry, and washed twice with 200 μl/well of PBST, then patted dry. The Nectin-4 antibodies prepared in Example 1 (antibody MM11, antibody R012, and antibody R036) were diluted with 1% BSA/PBST to concentrations of 10 μg/ml, 1 μg/ml, 100 ng/ml, and 10 ng/ml, respectively. 1% BSA/PBST solution for dilution was set as a blank control. 100 μl per well was added to the 96-well plate, and incubated at room temperature for 2 hours;
(§3) Reaction termination and plate reading: 100 μl/well of 1 mol/L H3PO4 was added to terminate the reaction and the plated was read. The absorbances of wells in the plate at 450 nm with 650 nm as reference wavelength were read and recorded as OD_{450 nm-650 nm}.

[2] = target: T6, Nectin-3 (UniProt Q9NQS3 58-404, limits assumed); experiment: ELISA, coated antigen, antibody at 10 ng/ml
T6 construct: Bought recombinant protein; also called CD113; PVRL-3
Protocol: as §1, §2, §3

[3] = target: T2, Nectin-1; experiment: ELISA, coated antigen, antibody at 10 ng/ml
Protocol: as §1, §2, §3

[4] = target: T3, Nectin-2; experiment: ELISA, coated antigen, antibody at 10 ng/ml
Protocol: as §1, §2, §3

[5] = target: T4, Nectin-like-4; experiment: ELISA, coated antigen, antibody at 10 ng/ml
Protocol: as §1, §2, §3

[6] = target: T5, Nectin-like-1; experiment: ELISA, coated antigen, antibody at 10 ng/ml
Protocol: as §1, §2, §3

[7] = target: T1, Nectin-like-5; experiment: ELISA, coated antigen, antibody at 100 ng/ml
Protocol: as §1, §2, §3

[8] = target: T6, Nectin-3; experiment: ELISA, coated antigen, antibody at 100 ng/ml
Protocol: as §1, §2, §3

[9] = target: T2, Nectin-1; experiment: ELISA, coated antigen, antibody at 100 ng/ml
Protocol: as §1, §2, §3

[10] = target: T3, Nectin-2; experiment: ELISA, coated antigen, antibody at 100 ng/ml
Protocol: as §1, §2, §3

[11] = target: T5, Nectin-like-1; experiment: ELISA, coated antigen, antibody at 100 ng/ml
Protocol: as §1, §2, §3

T6 sequence (Q9NQS3 58-404 limits assumed): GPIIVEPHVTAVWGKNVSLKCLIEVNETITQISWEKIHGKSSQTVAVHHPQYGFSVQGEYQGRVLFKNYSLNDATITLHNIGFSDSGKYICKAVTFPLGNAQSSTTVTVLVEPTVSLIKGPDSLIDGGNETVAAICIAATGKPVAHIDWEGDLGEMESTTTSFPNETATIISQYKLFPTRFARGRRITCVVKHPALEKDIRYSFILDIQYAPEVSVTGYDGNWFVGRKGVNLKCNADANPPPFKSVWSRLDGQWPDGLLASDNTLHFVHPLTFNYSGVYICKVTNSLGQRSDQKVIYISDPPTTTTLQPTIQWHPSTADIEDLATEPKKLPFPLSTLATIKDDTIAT

Row | Binder | OD detection value [1] [OD450 nm-650 nm] | OD detection value [2] [OD450 nm-650 nm] | OD detection value [3] [OD450 nm-650 nm] | OD detection value [4] [OD450 nm-650 nm] | OD detection value [5] [OD450 nm-650 nm] | OD detection value [6] [OD450 nm-650 nm] | OD detection value [7] [OD450 nm-650 nm] | OD detection value [8] [OD450 nm-650 nm] | OD detection value [9] [OD450 nm-650 nm] | OD detection value [10] [OD450 nm-650 nm] | OD detection value [11] [OD450 nm-650 nm]
1 | Antibody R012 (antibody, V domains shown, Rabbit monoclonal antibody from phage display; also called Nectin-4 rabbit monoclonal antibody R012; rabbit antibody R012) VH: SKSVEESGGRLVTPGTPLTLTCTVSGFSLSTYAMSWVRQAPGKGLEYIGIISGRGTTYYASWLKGRFTISKTSTTVDLKITSPTTEDTATYFCARDAGISDVYTGYFNLWGQGTLVTVSS VL: QPVLAQLPSASAALGASAKLTCTLSSAHRTYTIAWYQQQQGEAPRYLMMLKSDGSYTKGTGVPDRFSGSSSGADRYLIISSVQAADEADYYCGADDSGGYVFGGGTQLTVTG | 0.009 | 0.008 | 0.008 | 0.008 | 0.008 | 0.008 | 0.008 | 0.007 | 0.007 | 0.007 | 0.008
2 | Antibody R036 (antibody, V domains shown, Rabbit monoclonal antibody from phage display; also called Nectin-4 rabbit monoclonal antibody R036; rabbit antibody R036) VH: SQSVEESGGRLVTPGTPLTLTCTVSGFSLSSYAMSWVRQAPGKGLEYIGIIGGRGTTYYAIWAKGRFTISKTSTTVDLKITSPTTEDTATYFCARDAGTTYVGTTYVATGYFNLWGQGTLVTVSS VL: QPVLTQPPSASAALGASAKLTCTLSSAHKTYTIAWYQQQQGEAPRYLMILKSDGSYTRGTGVPDRFSGSSSGADRYLIISSVQADDEADYYCGADDSGGYVFGGGTQLTVTG | 0.009 | 0.007 | 0.007 | 0.007 | 0.007 | 0.007 | 0.009 | 0.007 | 0.007 | 0.007 | 0.007
3 | Antibody MM11 (antibody, mouse IgG1, kappa, V domains shown, Mouse monoclonal antibody from hybridoma; also called Nectin-4 mouse monoclonal antibody MM11; mouse antibody MM11) VH: DVQLQESGPGLVKPSQSLSLTCSVTGYSITSNFYWNWIRQFPGNRLEWMGYISYDGSNNYNPSLKNRISISRDTSKNQFFLKLNSVTTEDTATYYCVRADYWGQGTLVTVSA VL: DTVMTQTPLSLPVSLGDQASISCRSSQSLESSDGHAYLNWYLQKPGQSPQLLIYRVSNRFSGVLHRFSGSGSGTDFTLKISRVEAEDLGVYFCLQFTHVPFTFGSGTKLEIKR | 0.006 | 0.006 | 0.006 | 0.014 | 0.004 | 0.006 | 0.007 | 0.014 | 0.008 | 0.007 | 0.01
